In article PMC4703863:

Columns and labels:
[1] = molecular target: T1, His6-T7 RNA polymerase (bacteriophage T7, UniProt P00573 1-883); test: smFRET; no NTPs; ~0.2 FRET; Transcription-scanning buffer: 40 mM Tris-HCl pH 7.9, 5 mM Mg2+, 60 mM Na+, 0.2 mg/ml BSA, 2 mM Trolox, PCA/PCD; 0.5-5 nM RNAP, 20 nM AID; temperature and ssDNA
[2] = molecular target: T1, His6-T7 RNA polymerase; test: smFRET; no NTPs; ~0.4 FRET; Transcription-scanning buffer: 40 mM Tris-HCl pH 7.9, 5 mM Mg2+, 60 mM Na+, 0.2 mg/ml BSA, 2 mM Trolox, PCA/PCD; 0.5-5 nM RNAP, 20 nM AID; temperature and ssDNA
[3] = molecular target: T1, His6-T7 RNA polymerase; test: smFRET; no NTPs; ~0.85 FRET; Transcription-scanning buffer: 40 mM Tris-HCl pH 7.9, 5 mM Mg2+, 60 mM Na+, 0.2 mg/ml BSA, 2 mM Trolox, PCA/PCD; 0.5-5 nM RNAP, 20 nM AID; temperature and ssDNA
[4] = molecular target: T1, His6-T7 RNA polymerase; test: smFRET; no NTPs; ~0.95 FRET; Transcription-scanning buffer: 40 mM Tris-HCl pH 7.9, 5 mM Mg2+, 60 mM Na+, 0.2 mg/ml BSA, 2 mM Trolox, PCA/PCD; 0.5-5 nM RNAP, 20 nM AID; temperature and ssDNA
[5] = molecular target: T1, His6-T7 RNA polymerase; test: smFRET; no NTPs; Transcription-scanning buffer: 40 mM Tris-HCl pH 7.9, 5 mM Mg2+, 60 mM Na+, 0.2 mg/ml BSA, 2 mM Trolox, PCA/PCD; 0.5-5 nM RNAP, 20 nM AID; temperature and ssDNA

T1 sequence (P00573 whole entry): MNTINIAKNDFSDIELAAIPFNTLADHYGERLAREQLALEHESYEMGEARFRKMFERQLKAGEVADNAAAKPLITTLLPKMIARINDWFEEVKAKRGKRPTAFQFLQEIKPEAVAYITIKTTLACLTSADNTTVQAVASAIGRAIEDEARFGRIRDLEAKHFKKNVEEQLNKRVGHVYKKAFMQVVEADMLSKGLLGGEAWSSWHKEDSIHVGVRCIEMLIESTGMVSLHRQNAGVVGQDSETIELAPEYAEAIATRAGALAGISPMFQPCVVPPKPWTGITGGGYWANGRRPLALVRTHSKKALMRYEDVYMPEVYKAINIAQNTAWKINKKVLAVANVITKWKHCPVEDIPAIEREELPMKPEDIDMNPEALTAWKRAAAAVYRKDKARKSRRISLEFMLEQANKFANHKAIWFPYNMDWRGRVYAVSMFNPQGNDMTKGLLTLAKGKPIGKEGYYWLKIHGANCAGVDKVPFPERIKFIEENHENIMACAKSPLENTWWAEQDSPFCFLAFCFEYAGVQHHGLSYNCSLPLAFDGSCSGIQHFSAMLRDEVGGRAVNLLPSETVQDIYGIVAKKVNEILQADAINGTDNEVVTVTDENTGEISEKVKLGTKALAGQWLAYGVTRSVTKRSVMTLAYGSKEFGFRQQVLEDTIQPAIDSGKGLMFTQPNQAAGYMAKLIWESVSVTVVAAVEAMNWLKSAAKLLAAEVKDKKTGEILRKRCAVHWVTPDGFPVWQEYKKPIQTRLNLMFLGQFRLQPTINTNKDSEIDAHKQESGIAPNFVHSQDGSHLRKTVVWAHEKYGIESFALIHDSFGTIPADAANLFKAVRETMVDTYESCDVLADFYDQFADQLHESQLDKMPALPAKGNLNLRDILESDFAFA

B1: 69/66-mer T7 promoter dsDNA (promoter 39 bp from Cy3 end) (dsDNA)
DNA 1: TTTCAGAGATGCATAATACGACTCACTATAGGGAGAAAAGGGGAAAGCAAAGAGGAAAGGTGAGGAGGT
DNA 2: ACCTCCTCACCTTTCCTCTTTGCTTTCCCCTTTTCTCCCTATAGTGAGTCGTATTATGCATCTCTG
[1]
  binding result: binds

B2: T7 promoter dsDNA shifted 10 bp downstream (29 bp from Cy3 end) (dsDNA)
DNA 1: TTTGTGAGGAGGTCAGAGATGCATAATACGACTCACTATAGGGAGAAAAGGGGAAAGCAAAGAGGAAAG
DNA 2: CTTTCCTCTTTGCTTTCCCCTTTTCTCCCTATAGTGAGTCGTATTATGCATCTCTGACCTCCTCAC
[2]
  binding result: binds

B3: T7 promoter dsDNA shifted 20 bp downstream (19 bp from Cy3 end) (dsDNA)
DNA 1: TTTAAGAGGAAAGGTGAGGAGGTCAGAGATGCATAATACGACTCACTATAGGGAGAAAAGGGGAAAGCA
DNA 2: TGCTTTCCCCTTTTCTCCCTATAGTGAGTCGTATTATGCATCTCTGACCTCCTCACCTTTCCTCTT
[3]
  binding result: binds

B4: T7 promoter dsDNA shifted 30 bp downstream (9 bp from Cy3 end) (dsDNA)
DNA 1: TTTGGGGAAAGCAAAGAGGAAAGGTGAGGAGGTCAGAGATGCATAATACGACTCACTATAGGGAGAAAA
DNA 2: TTTTCTCCCTATAGTGAGTCGTATTATGCATCTCTGACCTCCTCACCTTTCCTCTTTGCTTTCCCC
[4]
  binding result: binds

B5: No-promoter dsDNA 66-mer (dsDNA)
DNA 1: CAGAGATGCAGCCGTCCGTATCCGTATTGTAGAAAAGGGGAAAGCAAAGAGGAAAGGTGAGGAGGT
DNA 2: ACCTCCTCACCTTTCCTCTTTGCTTTCCCCTTTTCTACAATACGGATACGGACGGCTGCATCTCTG
[5]
  binding result: no binding
